Source: PMC2150902 (The Journal of Cell Biology, 2001)

Molecular target: the molecule itself
Test: dynamic light scattering

B1: Δ9-Sar1A (hamster Sar1 lacking residues 2–9), GDP-bound form (domain or fragment)
chain: not shown
  stoichiometry N: 2
